Patent US6642040B2, “Human cGMP-stimulated cyclic nucleotide phosphodiesterase” (The Board of Regents of the University of Washington, priority 1991, dated 2003)

Assays:
calmodulin = calmodulin (Homo sapiens, UniProt P0DP23); details: cited from earlier work
cAMP and cGMP hydrolysis [1] = assay: PDE activity of homogenates of COS-7 cells transfected with 61 kDa CaM-PDE cDNA; format: biochemical, bovine; details: COS-7 cell extracts
cGS-PDE activity = cGS-PDE activity of membrane and supernatant fractions of transfected COS-7 cells; format: biochemical, bovine
Source text: Transient expression of the CGS-PDE cDNA in COS-7 cells was accomplished as in Example I. A 4.2 kb fragment of p3CGS-5 was isolated using HindIII and NotI and was inserted into plasmid pCDM8, which had been digested with the same enzymes. The character of products produced in COS-7 cells transformed with the p3CGS-5/pCDM8 construct is discussed in Example V, infra.
For transient expression in COS-7 cells, a 3.8 kb fragment of pBBCGSPDE-7 was isolated using HindIII and NotI and inserted into plasmid pCDM8 which had been cut with HindIII and NotI restriction endonucleases. The recombinant pBBCGSPDE-7/CDM8 construct was used to transiently transfect COS-7 cells. The properties of the pBBCGSPDE-7/CDM8 construct and the p3CGS-5/CDM8 construct prepared in Example IV products were subsequently compared. Membrane and supernatant fractions were prepared from extracts of transfected COS-7 cells and assayed for cGS-PDE activity. […] However, a 10-fold greater percentage of total cGS-PDE activity was detected in membranes from COS-7 cell extracts transfected with the pBBCGSPDE-7/CDM8 construct than in membranes prepared from p3CGS-5/CDM8-transfected COS-7 cells.

cAMP and cGMP hydrolysis [2] = assay: CaM-dependent PDE activity of homogenates of COS-7 cells transfected with 63 kDa CaM-PDE cDNA; format: biochemical, bovine; details: COS-7 cell homogenates
Description: COS cells were scraped from the plates and homogenized in a buffer containing 40 mM Tris-HCl (pH=7.5), 5 mM EDTA, 15 mM benzamidine, 15 mM beta-mercaptoethanol, 1 μg per ml pepstatin A and 1 μg per ml peupeptin using a Dounce homogenizer (1 ml per 100 mm plate). Homogenates were assayed for PDE activity according to the procedures of Hanson et al., Proc. Nat'l. Acad. Sci. U.S.A., 79:2788-2792 (1982), using [^3H]cGMP as the substrate. Reactions were carried out at 300 for 10 minutes in a buffer containing 20 mM Tris-HCl (pH=7.5), 20 mM imidazole (pH=7.5), 3 mM MgCl2, 15 mM Mg acetate, 0.2 mg per ml BSA and 1 μM ^3H-cAMP with either 2 mM EGTA or 0.2 mM CaCl2 and 4 μg per ml CaM. Assays were stopped by incubating the tubes in a 900 water bath for 1 minute. After cooling, 10 μl of 2.5 mg per ml snake venom was added to each assay and incubated at 370 for 5 minutes. […] Samples were counted for 1 minute using a Packard Model 1600TR scintillation counter. Specific cyclic nucleotide hydrolytic activity was expressed as picomoles cAMP or cGMP hydrolyzed per minute per mg protein. […]
COS-7 cells were transfected with the p12.3.a/CDM8 construct or mock transfected with the CDM8 vector alone using the DEAE-dextran method as described in Example 1. […] CaM-dependent and independent activities were determined as in Example 1.

B1: 59 kDa isozyme: 59 kDa CaM-PDE isozyme isolated from bovine heart (protein, UniProt P14100 1-530, looked up)
Dual specificity …: MGSTATETEELENTTFKYLIGEQTEKMWQRLKGILRCLVKQLEKGDVNVIDLKKNIEYAASVLEAVYIDETRRLLDTDDELSDIQSDSVPSEVRDWLASTFTRKMGMMKKKSEEKPRFRSIVHVVQAGIFVERMYRKSYHMVGLAYPEAVIVTLKDVDKWSFDVFALNEASGEHSLKFMIYELFTRYDLINRFKIPVSCLIAFAEALEVGYSKYKNPYHNLIHAADVTQTVHYIMLHTGIMHWLTELEILAMVFAAAIHDYEHTGTTNNFHIQTRSDVAILYNDRSVLENHHVSAAYRLMQEEEMNVLINLSKDDWRDLRNLVIEMVLSTDMSGHFQQIKNIRNSLQQPEGLDKAKTMSLILHAADISHPAKSWKLHHRWTMALMEEFFLQGDKEAELGLPFSPLCDRKSTMVAQSQIGFIDFIVEPTFSLLTDSTEKIIIPLIEEDSKTKTPSYGASRRSNMKGTTNDGTYSPDYSLASVDLKSFKNSLVDIIQQNKERWKELAAQGEPDPHKNSDLVNAEEKHAETHS
- affinity for calmodulin relative to the 61 kDa brain isozyme (calmodulin): 10-20 fold

B2: pCAM-40: expression product of plasmid pCAM-40, full length bovine brain 61 kDa CaM-PDE (SEQ ID NO: 6) (protein)
chain: MGSTATETEELENTTFKYLIGEQTEKMWQRLKGILRCLVKQLEKGDVNVIDLKKNIEYAASVLEAVYIDETRRLLDTDDELSDIQSDSVPSEVRDWLASTFTRKMGMMKKKSEEKPRFRSIVHVVQAGIFVERMYRKSYHMVGLAYPEAVIVTLKDVDKWSFDVFALNEASGEHSLKFMIYELFTRYDLINRFKIPVSCLIAFAEALEVGYSKYKNPYHNLIHAADVTQTVHYIMLHTGIMHWLTELEILAMVFAAAIHDYEHTGTTNNFHIQTRSDVAILYNDRSVLENHHVSAAYRLMQEEEMNVLINLSKDDWRDLRNLVIEMVLSTDMSGHFQQIKNIRNSLQQPEGLDKAKTMSLILHAADISHPAKSWKLHHRWTMALMEEFFLQGDKEAELGLPFSPLCDRKSTMVAQSQIGFIDFIVEPTFSLLTDSTEKIIIPLIEEDSKTKTPSYGASRRSNMKGTTNDGTYSPDYSLASVDLKSFKNSLVDIIQQNKERWKELAAQGEPDPHKNSDLVNAEEKHAETHS
- cAMP and cGMP hydrolytic activities compared to mock transfected cells (cAMP and cGMP hydrolysis [1]; in the presence of EGTA): significantly greater
- effect of calcium and CaM on cAMP and cGMP hydrolysis (cAMP and cGMP hydrolysis [1]; in the presence of calcium and CaM): stimulation

B3: pBBCGSPDE-7/CDM8: expression product of bovine brain cGS-PDE cDNA (SEQ ID NO: 43) (protein)
chain: MGQACGHSILCRSQQYPAARPAEPRGQQVFLKPDEPPPPPQPCADSLQDALLSLGSVIDVAGLQQAVKEALSAVLPKVETVYTYLLDGESRLVCEEPPHELPQEGKVREAVISRKRLGCNGLGPSDLPGKPLARLVAPLAPDTQVLVIPLVDKEAGAVAAVILVHCGQLSDNEEWSLQAVEKHTLVALKRVQALQQRESSVAPEATQNPPEEAAGDQKGGVAYTDQDRKILQLCGELYDLDASSLQLKVLQYLQQETQASRCCLLLVSEDNLQLSCKVIGDKVLEEEISFPLTTGRLGQVVEDKKSIQLKDLTSEDMQQLQSMLGCEVQAMLCVPVISRATDQVVALACAFNKLGGDLFTDQDEHVIQHCFHYTSTVLTSTLAFQKEQKLKCECQALLQVAKNLFTHLDDVSVLLQEIITEARNLSNAEICSVFLLDQNELVAKVFDGGVVEDESYEIRIPADQGIAGHVATTGQILNIPDAYAHPLFYRGVDDSTGFRTRNILCFPIKNENQEVIGVAELVNKINGPWFSKFDEDLATAFSIYCGISIAHSLLYKKVNEAQYRSHLANEMMMYHMKVSDDEYTKLLHDGIQPVAAIDSNFASFTYTPRSLPEDDTSMAILSMLQDMNFINNYKIDCPTLARFCLMVKKGYRDPPYHNWMHAFSVSHFCYLLYKNLELTNYLEDMEIFALFISCMCHDLDHRGTNNSFQVASKSVLAALYSSEGSVMERHHFAQAIAILNTHGCNIFDHFSRKDYQRMLDLMRDIILATDLAHHLRIFKDLQKMAEVGYDRTNKQHHSLLLCLLMTSCDLSDQTKGWKTTRKIAELIYKEFFSQGDLEKAMGNRPMEMMDREKAYIPELQISFMEHIAMPIYKLLQDLFPKAAELYERVASNREHWTKVSHKFTIRGLPSNNSLDFLDEEYEVPDLDGARAPINGCCSLDAE
- percentage of total cGS-PDE activity detected in membranes, relative to p3CGS-5/CDM8-transfected cells (cGS-PDE activity; membranes from COS-7 cell extracts): 10 fold
- cGS-PDE activity in COS-7 cell extracts (cGS-PDE activity; most of the activity in supernatant fractions): produced cGS-PDE activities

B4: p12.3.a: expression product of bovine brain 63 kDa CaM-PDE cDNA clone (SEQ ID NO: 27) (protein)
chain: MELSPRSPPEMLESDCPSPLELKSAPSKKMWIKLRSLLRYMVKQLENGEVNIEELKKNLEYTASLLEAVYIDETRQILDTEDELQELRSDAVPSEVRDWLASTFTQQTRAKGPSEEKPKFRSIVHAVQAGIFVERMFRRTYTSVGPTYSTAVLNCLKNVDLWCFDVFSLNRAADDHALRTIVFELLTRHNLISRFKIPTVFLMTFLDALETGYGKYKNPYHNQIHAADVTQTVHCFLLRTGMVHCLSEIEVLAIIFAAAIHDYEHTGTTNSFHIQTKSECAILYNDRSVLENHHISSVFRMMQDDEMNIFINLTKDEFVELRALVIEMVLATDMSCHFQQVKSMKTALQQLERIDKSKALSLLLHAADISHPTKQWSVHSRWTKALMEEFFRQGDKEAELGLPFSPLCDRTSTLVAQSQIGFIDFIVEPTFSVLTDVAEKSVQPTGDDDSKSKNQPSFQWRQPSLDVEVGDPNPDVVSFRSTWTKYIQENKQKWKERAASGITNQMSIDELSPCEEEAPASPAEDEHNQNGNLD
- increase in CaM-stimulated cAMP phosphodiesterase activity over basal levels (cAMP and cGMP hydrolysis [2]): 15 fold
- increase in CaM-stimulated cGMP phosphodiesterase activity over basal levels (cAMP and cGMP hydrolysis [2]): 12 fold
